Results from patent publication US20130230533A1 (Regeneron, published 2013).

What was measured:
[1] = biological target: T1, human CD48 (on primary human peripheral blood mononuclear cells) (human, UniProt P09326 27-220); experiment: cell-based or functional assay
T1 sequence: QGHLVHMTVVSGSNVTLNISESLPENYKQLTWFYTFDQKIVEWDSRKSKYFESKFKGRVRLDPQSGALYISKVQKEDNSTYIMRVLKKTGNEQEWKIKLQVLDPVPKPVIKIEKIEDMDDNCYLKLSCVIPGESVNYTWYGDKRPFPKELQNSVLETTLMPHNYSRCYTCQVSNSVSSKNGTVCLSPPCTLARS

[2] = biological target: T2, monomeric monkey CD48 expressed with a tag consisting of 2 myc and one 6-His epitopes (monkey); experiment: competition ELISA; blocks mfCD48-mmH binding to coated h2B4-hFc
T2 construct: also called mfCD48-mmH; Monomeric monkey CD48-mmH
T2 chain: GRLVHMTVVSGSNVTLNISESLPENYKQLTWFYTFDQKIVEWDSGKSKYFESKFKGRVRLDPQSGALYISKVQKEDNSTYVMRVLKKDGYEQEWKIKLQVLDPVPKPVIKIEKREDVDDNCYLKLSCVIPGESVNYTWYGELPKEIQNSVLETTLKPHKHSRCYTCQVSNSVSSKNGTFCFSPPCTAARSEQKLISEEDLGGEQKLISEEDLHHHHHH
Experimental: (§1) The ability of human anti-CD48 monoclonal antibodies to block human CD48 and monkey CD48 binding to the human cognate ligand, human 2B4, was measured using a competition sandwich ELISA (Table 8). Constant amounts of biotinylated dimeric human CD48 protein expressed as a fusion with mouse IgG2a Fc (“bio-hCD48-mFc” [SEQ ID NO: 387]) or monomeric monkey CD48 expressed with a tag consisting of 2 myc and one 6-His epitopes (“mfCD48-mmH” [SEQ ID NO: 386]) were separately titrated with varying amounts of antibodies. These antibody-protein complexes were incubated (1 hr, 25° C.) before being transferred to microtiter plates coated with a dimeric construct expressing the human 2B4 receptor fused to a either human IgG1 (h2B4-hFc [R&D Systems, Inc., Minneapolis, Minn., Cat. No. 1039-2B]) or mouse IgG2a Fc (h2B4-mFc [SEQ ID NO: 389). After a 1 hr at 25° C. the wells were washed and bound human CD48 was detected with streptavidin conjugated with horse-radish peroxidase (HRP), and monkey CD48 was detected with an HRP conjugated anti-myc polyclonal antibody. The ELISA was developed with a TMB solution to produce a colorimetric reaction and quenched with sulfuric acid before reading absorbance at 450 nm on a Victor X5 plate reader. Sigmoidal dose response curves were fit to the data using Prism™ software. […] (Tables 8 and 9, NB=no binding observed)

[3] = biological target: T3, biotinylated dimeric human CD48 protein expressed as a fusion with mouse IgG2a Fc (human, biotinylated); experiment: competition ELISA; blocks bio-hCD48-mFc binding to coated h2B4-hFc
T3 construct: also called bio-hCD48-mFc; Dimeric human CD48-mFc
T3 chain: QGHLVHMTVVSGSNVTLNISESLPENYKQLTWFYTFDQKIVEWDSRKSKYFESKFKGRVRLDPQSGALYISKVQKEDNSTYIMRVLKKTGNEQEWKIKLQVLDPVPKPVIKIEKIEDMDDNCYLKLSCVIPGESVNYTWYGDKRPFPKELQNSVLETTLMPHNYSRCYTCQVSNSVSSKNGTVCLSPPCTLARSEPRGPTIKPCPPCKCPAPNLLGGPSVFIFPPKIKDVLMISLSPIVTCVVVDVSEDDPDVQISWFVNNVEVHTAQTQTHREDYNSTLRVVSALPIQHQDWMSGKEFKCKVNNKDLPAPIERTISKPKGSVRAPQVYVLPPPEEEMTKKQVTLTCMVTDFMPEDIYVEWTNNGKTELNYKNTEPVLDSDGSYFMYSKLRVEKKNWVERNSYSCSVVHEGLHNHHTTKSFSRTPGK
Experimental: as §1

[4] = biological target: T1, human CD48 (on primary human peripheral …); experiment: cell-based or functional assay; remark: listed apart in the source
[5] = biological target: T1, human CD48 (on primary human peripheral …); experiment: cell-based or functional assay; remark: listed apart in the source
[6] = biological target: T1, human CD48 (on primary human peripheral …); experiment: cell-based or functional assay; remark: listed apart in the source
[7] = biological target: T2, monomeric monkey CD48 expressed with a …; experiment: competition ELISA; blocks mfCD48-mmH binding to coated h2B4-mFc
Experimental: as §1

[8] = biological target: T3, biotinylated dimeric human CD48 protein …; experiment: competition ELISA; blocks bio-hCD48-mFc binding to coated h2B4-mFc
Experimental: as §1

[9] = biological target: T1, human CD48 (on primary human peripheral …); experiment: cell-based or functional assay; remark: listed apart in the source

B1: H2M1709N (antibody, mouse IgG2, V domains shown)
VH: QVQLVQSGAEVKKPGASVKVSCKVSGYTLTELSIHWVRQAPGKGLEWMGGFDPEDGETIYAQKFQGRVNMTEDTSTDTAYMELSSLRSDDTTVYFCASLLPYFDYWGQGTLVTVSS
VL: EIVLTQSPGTLSLSPGERATLSCRASQSVSSSYLAWYQQKPGQAPRLLIYGASSRATGIPDRFSGSGSGTDFTLSISRLEPEDFAVYFCQQYGSSMYTFGQGTKLEIK
notes: Human variable domains, mouse IgG2 Fc (H2M)
Inhibition of IFN-gamma Release IC50; Donor 1 [1]: 4.8e-11 Molar
Inhibition of IFN-gamma Release IC50; Donor 2 [1]: 5.7e-11 Molar
Inhibition of IFN-gamma Release IC50; Donor 3 [1]: 1.2e-10 Molar
Inhibition of IFN-gamma Release IC50; Donor 4 [1]: 1.1e-10 Molar
Inhibition of IFN-gamma Release IC50; Donor 5 [1]: 3.2e-11 Molar
IC50 [2]: 0.12 nM
IC50 [3]: 0.045 nM

B2: H2M1811N (antibody, mouse IgG2, V domains shown)
VH: QVQLVQSGAEAREPGASVRVSCKASGYTFTDYFIHWVRQAPGQGLEWMGWINPNSGATNFAQKFQGRVTMTRDTSLITAYMDLSRLKSDDAAVFYCARDVDGSGWYLDFWGQGTLVTVSS
VL: EIVLTQSPATLSLSPGERATLSCRASQSVSIYLAWYQQKPGQAPRLLIYDASNRATGIPARFSGSGSGTDFTLTISRLEPEDFAVYYCQQRSDWPPSITFGQGTRLEIK
notes: as for B1
Inhibition of IFN-gamma Release IC50; Donor 1 [1]: 9.1e-11 Molar
Inhibition of IFN-gamma Release IC50; Donor 2 [1]: 4.6e-10 Molar
Inhibition of IFN-gamma Release IC50; Donor 3 [1]: 8.3e-11 Molar
Inhibition of IFN-gamma Release IC50; Donor 4 [1]: 4.8e-10 Molar
Inhibition of IFN-gamma Release IC50; Donor 5 [1]: 9.4e-11 Molar
IC50 [2]: 0.22 nM
IC50 [3]: 0.49 nM

B3: H4H1775P (antibody, human IgG4, V domains shown)
VH: QVQLVESGGGVVQPGRSLRLSCAASGFTFSNYGMHWVRQAPGKGLEWVAVIWYDESGKHYADSVKGRFTISRDNSQNTLYLQMTSLRAEDTAVYYCARDRWTYSHYFEYWGQGTLVTVSS
VL: DIQMTQSPSSVSASVGDRVTITCRASQDISSWVAWYQQKPGKAPKLLIYAASSLQSGVPSRFSGSGSGTDFTLTISSLQPEDFATYYCQQANSFPRTFGQGTKVEIK
notes: Human IgG4 Fc (H4H)
Inhibition of IFN-gamma Release IC50; Donor 7 [4]: 5.1e-12 Molar
Inhibition of IFN-gamma Release IC50; Donor 8 [5]: 3.1e-12 Molar
Inhibition of IFN-gamma Release IC50; Donor 9 [5]: 2.3e-12 Molar
Inhibition of IFN-gamma Release IC50; Donor 10 [5]: 2e-11 Molar
% Blockade of IFNγ release, MLR; D1 [6]: 42%
% Blockade of IFNγ release, MLR; D2 [6]: 77%
% Blockade of IFNγ release, MLR; D3 [6]: 87%
% Blockade of IFNγ release, MLR; D4 [6]: 37%
% Blockade of IFNγ release, MLR; D5 [6]: 70%
% Blockade of IFNγ release, MLR; D6 [6]: 72%
% Blockade of IFNγ release, MLR; D7 [6]: 69%
% Blockade of IFNγ release, MLR; D8 [6]: 22%
% Blockade of IFNγ release, MLR; D9 [6]: 60%
IC50 [7]: 0.043 nM
IC50 [8]: 0.044 nM

B4: H2M1712N (antibody, mouse IgG2, V domains shown)
VH: QIQLVQSGAEMKRPGTSVKVSCKASGYTFSSYGINWVRQAPGQGLEWMGWISAYNGDTNYAQKLQGRVTMTTDTSTTTAYMEVRSLRSDDTAVYYCARFLTGTKDLYYGMDVWGQGTTVTVSS
VL: DIQMTQSPSSLSASVGDRVTITCQASQDISNFLNWYQQKPGKAPDLLINDASILETGVPSRFSGSGSGTDFTLTINSLQPEDIATYYCQQYDNLPLTFGGGTKVEIK
notes: as for B1
Inhibition of IFN-gamma Release IC50; Donor 1 [1]: 2e-11 Molar
Inhibition of IFN-gamma Release IC50; Donor 2 [1]: 2.8e-11 Molar
Inhibition of IFN-gamma Release IC50; Donor 3 [1]: 7.2e-11 Molar
Inhibition of IFN-gamma Release IC50; Donor 4 [1]: 4.8e-11 Molar
Inhibition of IFN-gamma Release IC50; Donor 5 [1]: 1.1e-11 Molar
IC50 [2]: 0.017 nM
IC50 [3]: 0.014 nM

B5: H4H1789Pa (antibody, V domains shown)
VH: EVQLLESGGGLVHPGGSLRLSCAASGFTFGGYAMSWVRQAPGKGLEWVSLISGSGGSTYYADSVKGRFTIFRDNSKNTLYLQMISLRAEDSAVYYCAKYSNYDYFDPWGQGTLVTVSS
VL: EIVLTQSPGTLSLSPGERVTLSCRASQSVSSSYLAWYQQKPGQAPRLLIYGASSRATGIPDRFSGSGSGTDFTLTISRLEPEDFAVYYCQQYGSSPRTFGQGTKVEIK
notes: Human IgG4 Fc (H4H)
Inhibition of IFN-gamma Release IC50; Donor 6 [4]: 1.2e-11 Molar
Inhibition of IFN-gamma Release IC50; Donor 7 [4]: 1.8e-11 Molar
Inhibition of IFN-gamma Release IC50; Donor 8 [5]: 3.7e-11 Molar
Inhibition of IFN-gamma Release IC50; Donor 9 [5]: 1.6e-11 Molar
Inhibition of IFN-gamma Release IC50; Donor 10 [5]: 1.3e-11 Molar
Inhibition of IFN-gamma Release IC50; Donor 11 [5]: 1.3e-11 Molar
% Blockade of IFNγ release, MLR; D1 [6]: 65%
% Blockade of IFNγ release, MLR; D2 [6]: 66%
% Blockade of IFNγ release, MLR; D3 [6]: 88%
% Blockade of IFNγ release, MLR; D4 [6]: 36%
% Blockade of IFNγ release, MLR; D5 [6]: 89%
% Blockade of IFNγ release, MLR; D6 [6]: 82%
% Blockade of IFNγ release, MLR; D7 [6]: 75%
% Blockade of IFNγ release, MLR; D8 [6]: 65%
% Blockade of IFNγ release, MLR; D9 [6]: 66%
IC50 of IFNγ release, MLR; D1 [9]: ~0.0014 nM
IC50 of IFNγ release, MLR; D2 [9]: ~0.0093 nM
IC50 of IFNγ release, MLR; D4 [9]: 0.23 nM
IC50 of IFNγ release, MLR; D5 [9]: ~0.09 nM
IC50 of IFNγ release, MLR; D6 [9]: 0.0028 nM
IC50 of IFNγ release, MLR; D8 [9]: 0.029 nM
IC50 of IFNγ release, MLR; D9 [9]: 0.18 nM
IC50 of IFNγ release, MLR; D10 [9]: ~0.05 nM
IC50 of IFNγ release, MLR; D11 [9]: ~0.092 nM
IC50 of IFNγ release, MLR; D12 [9]: ~0.3 nM
IC50 of IFNγ release, MLR; D13 [9]: ~0.096 nM
IC50 of IFNγ release, MLR; D14 [9]: 0.2 nM
IC50 of IFNγ release, MLR; D15 [9]: ~0.0027 nM
IC50 of IFNγ release, MLR; D16 [9]: ~0.012 nM
IC50 [7]: 0.038 nM
IC50 [8]: 0.053 nM

B6: H4H1772P (antibody, human IgG4, V domains shown)
VH: EVQLVESGGGLVQPGGSLRLSCAASGFTFSSYWMSWVRQAPGKGLEWVANIMRDGSEKYYVDSVKGRFTISRDNAKNSLYLQMNSLRGEDTAVYYCARERGFYTNYGNWFDPWGQGTLVTVSS
VL: DIVMTQSPLSLTVTPGESASISCRSSQSLLHSYGYNSLDWYLQKPGQSPQFLIYLVSNRASGVPDRFSGSGSGTDFTLKISRVEAEDVGVYYCMQVLQTPYTFGQGTKLEIK
notes: Human IgG4 Fc (H4H)
Inhibition of IFN-gamma Release IC50; Donor 6 [4]: 2e-12 Molar
Inhibition of IFN-gamma Release IC50; Donor 7 [4]: 2.2e-11 Molar
Inhibition of IFN-gamma Release IC50; Donor 10 [5]: 1.4e-12 Molar
Inhibition of IFN-gamma Release IC50; Donor 11 [5]: 8.6e-11 Molar
% Blockade of IFNγ release, MLR; D2 [6]: 65%
% Blockade of IFNγ release, MLR; D3 [6]: 62%
% Blockade of IFNγ release, MLR; D4 [6]: 39%
% Blockade of IFNγ release, MLR; D5 [6]: 62%
% Blockade of IFNγ release, MLR; D6 [6]: 63%
% Blockade of IFNγ release, MLR; D7 [6]: 58%
% Blockade of IFNγ release, MLR; D8 [6]: 25%
% Blockade of IFNγ release, MLR; D9 [6]: 59%
IC50 [7]: 0.0044 nM
IC50 [8]: 0.014 nM
